Each block holds one substance with its values, some of them ahead of it.
Tests used:
[1] = molecular target: recombinant UBE3A protein (Homo sapiens (Human)) (UniProt Q05086); assay: Simoa; capture GTX; 3E5 0.1 ug/ml; UBE3A 0.0320 ng/ml
[2] = molecular target: recombinant UBE3A protein (Homo sapiens (Human)) (UniProt Q05086); assay: Simoa; capture GTX, no helper beads; 3E5 0.4 ug/ml; UBE3A 0.160 ng/ml
[3] = molecular target: recombinant UBE3A protein (Homo sapiens (Human)) (UniProt Q05086); assay: Simoa; capture GTX; 3E5 0.4 ug/ml; UBE3A 0.00640 ng/ml
[4] = molecular target: recombinant UBE3A protein (Homo sapiens (Human)) (UniProt Q05086); assay: Simoa; capture GTX; 3E5 0.1 ug/ml; UBE3A 0.160 ng/ml
[5] = molecular target: recombinant UBE3A protein (Homo sapiens (Human)) (UniProt Q05086); assay: Simoa; capture GTX; SBG 150 pm; UBE3A 0.00640 ng/ml
[6] = molecular target: recombinant UBE3A protein (Homo sapiens (Human)) (UniProt Q05086); assay: Simoa; capture GTX; SBG 150 pm; UBE3A 0.00128 ng/ml
[7] = molecular target: recombinant UBE3A protein (Homo sapiens (Human)) (UniProt Q05086); assay: Simoa; capture GTX; 3E5 0.1 ug/ml; UBE3A 20.0 ng/ml
[8] = molecular target: recombinant UBE3A protein (Homo sapiens (Human)) (UniProt Q05086); assay: Simoa; capture GTX; SBG 100 pm; UBE3A 0.800 ng/ml
[9] = molecular target: recombinant UBE3A protein (Homo sapiens (Human)) (UniProt Q05086); assay: Simoa; capture GTX; SBG 75 pm; UBE3A 0.0320 ng/ml
[10] = molecular target: recombinant UBE3A protein (Homo sapiens (Human)) (UniProt Q05086); assay: Simoa; capture GTX + helper beads; 3E5 0.1 ug/ml; UBE3A 0.0320 ng/ml
[11] = molecular target: recombinant UBE3A protein (Homo sapiens (Human)) (UniProt Q05086); assay: Simoa; capture GTX; 3E5 0.1 ug/ml; UBE3A 0.00640 ng/ml
[12] = molecular target: recombinant UBE3A protein (Homo sapiens (Human)) (UniProt Q05086); assay: Simoa; capture GTX; 3E5 0.8 ug/ml; UBE3A 0.0320 ng/ml
[13] = molecular target: recombinant UBE3A protein (Homo sapiens (Human)) (UniProt Q05086); assay: Simoa; capture GTX; 3E5 0.8 ug/ml; UBE3A 0.00128 ng/ml
[14] = molecular target: recombinant UBE3A protein (Homo sapiens (Human)) (UniProt Q05086); assay: Simoa; capture GTX + helper beads; 3E5 0.1 ug/ml; UBE3A 0.800 ng/ml
[15] = molecular target: recombinant UBE3A protein (Homo sapiens (Human)) (UniProt Q05086); assay: Simoa; capture GTX; 3E5 0.2 ug/ml; UBE3A 4.00 ng/ml
[16] = molecular target: recombinant UBE3A protein (Homo sapiens (Human)) (UniProt Q05086); assay: Simoa; capture GTX; SBG 100 pm; UBE3A 20.0 ng/ml
[17] = molecular target: recombinant UBE3A protein (Homo sapiens (Human)) (UniProt Q05086); assay: Simoa; capture GTX + helper beads; 3E5 0.1 ug/ml; UBE3A 0.160 ng/ml
[18] = molecular target: recombinant UBE3A protein (Homo sapiens (Human)) (UniProt Q05086); assay: Simoa; capture GTX + helper beads; 3E5 0.1 ug/ml; UBE3A 0.00640 ng/ml
[19] = molecular target: recombinant UBE3A protein (Homo sapiens (Human)) (UniProt Q05086); assay: Simoa; capture GTX + helper beads; 3E5 0.1 ug/ml; UBE3A 4.00 ng/ml
[20] = molecular target: recombinant UBE3A protein (Homo sapiens (Human)) (UniProt Q05086); assay: 2-step Simoa; capture GTX; UBE3A 1.95 ng/ml

Sequence of UniProt Q05086 (Q05086 whole entry): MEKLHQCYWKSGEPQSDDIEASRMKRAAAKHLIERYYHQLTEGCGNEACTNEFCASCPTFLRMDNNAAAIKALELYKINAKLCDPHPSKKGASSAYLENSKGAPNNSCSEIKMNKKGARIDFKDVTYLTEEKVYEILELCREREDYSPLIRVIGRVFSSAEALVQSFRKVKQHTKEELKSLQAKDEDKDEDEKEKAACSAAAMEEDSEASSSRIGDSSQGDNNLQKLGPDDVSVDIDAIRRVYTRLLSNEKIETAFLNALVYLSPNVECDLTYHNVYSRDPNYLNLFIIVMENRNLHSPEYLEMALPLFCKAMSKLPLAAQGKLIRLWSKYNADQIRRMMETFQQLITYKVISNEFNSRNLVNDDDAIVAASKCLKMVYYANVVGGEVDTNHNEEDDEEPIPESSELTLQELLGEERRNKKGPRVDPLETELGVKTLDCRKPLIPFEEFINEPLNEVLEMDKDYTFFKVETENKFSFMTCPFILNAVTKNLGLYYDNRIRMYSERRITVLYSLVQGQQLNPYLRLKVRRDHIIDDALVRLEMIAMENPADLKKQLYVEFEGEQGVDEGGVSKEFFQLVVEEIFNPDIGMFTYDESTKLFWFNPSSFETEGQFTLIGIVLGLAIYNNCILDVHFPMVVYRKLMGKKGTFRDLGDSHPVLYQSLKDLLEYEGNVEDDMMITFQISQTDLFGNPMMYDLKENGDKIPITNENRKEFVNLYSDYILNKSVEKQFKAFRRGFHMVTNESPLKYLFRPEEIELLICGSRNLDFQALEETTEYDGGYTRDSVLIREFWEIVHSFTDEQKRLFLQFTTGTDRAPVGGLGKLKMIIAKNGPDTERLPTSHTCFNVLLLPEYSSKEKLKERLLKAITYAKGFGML

- AEB1 [1]: 0.0351
- AEB2 [1]: 0.04
- AEB3 [1]: 0.0401
- Average AEB [1]: 0.0384
- Signal to Background [1]: 1.99
- AEB1 [2]: 0.1
- AEB2 [2]: 0.108
- Average AEB [2]: 0.104
- Signal to Background [2]: 5.33
- AEB1 [3]: 0.0671
- AEB2 [3]: 0.0638
- AEB3 [3]: 0.0865
- Average AEB [3]: 0.0725
- Signal to Background [3]: 1.16
- AEB1 [4]: 0.0828
- AEB2 [4]: 0.0846
- Average AEB [4]: 0.0837
- Signal to Background [4]: 4.34
- AEB1 [5]: 0.0136
- AEB2 [5]: 0.0149
- AEB3 [5]: 0.014
- Average AEB [5]: 0.0142
- Signal to Background [5]: 1.07
- AEB1 [6]: 0.013
- AEB2 [6]: 0.018
- AEB3 [6]: 0.0134
- Average AEB [6]: 0.0148
- Signal to Background [6]: 1.12
- AEB1 [7]: 5.11
- AEB2 [7]: 5.62
- AEB3 [7]: 5.2
- Average AEB [7]: 5.31
- Signal to Background [7]: 276
- AEB1 [8]: 0.21
- AEB2 [8]: 0.214
- AEB3 [8]: 0.211
- Average AEB [8]: 0.212
- Signal to Background [8]: 25.3
- AEB1 [9]: 0.0091
- AEB2 [9]: 0.0117
- AEB3 [9]: 0.0116
- Average AEB [9]: 0.0108
- Signal to Background [9]: 2.47
- AEB1 [10]: 0.0159
- AEB2 [10]: 0.0108
- Average AEB [10]: 0.0134
- Signal to Background [10]: 2.33
- AEB1 [11]: 0.0251
- AEB2 [11]: 0.0238
- AEB3 [11]: 0.0256
- Average AEB [11]: 0.0248
- Signal to Background [11]: 1.29
- AEB1 [12]: 0.144
- AEB2 [12]: 0.138
- AEB3 [12]: 0.152
- Average AEB [12]: 0.145
- Signal to Background [12]: 1.18
- AEB1 [13]: 0.109
- AEB2 [13]: 0.109
- AEB3 [13]: 0.112
- Average AEB [13]: 0.11
- Signal to Background [13]: 0.897
- AEB1 [14]: 0.167
- AEB2 [14]: 0.166
- Average AEB [14]: 0.166
- Signal to Background [14]: 29
- AEB1 [15]: 1.18
- AEB2 [15]: 2.32
- AEB3 [15]: 1.18
- Average AEB [15]: 1.56
- Signal to Background [15]: 39.7
- AEB1 [16]: 3.96
- AEB2 [16]: 3.97
- AEB3 [16]: 4.1
- Average AEB [16]: 4.01
- Signal to Background [16]: 478
- AEB1 [17]: 0.0417
- AEB2 [17]: 0.0425
- Average AEB [17]: 0.0421
- Signal to Background [17]: 7.34
- AEB1 [18]: 0.0065
- AEB2 [18]: 0.0045
- Average AEB [18]: 0.0055
- Signal to Background [18]: 0.962
- AEB1 [19]: 0.639
- AEB2 [19]: 0.606
- Average AEB [19]: 0.623
- Signal to Background [19]: 109
Substance: anti-UBE3A antibody 3E5 (SAB1404508-100 ug, Millipore-Sigma)

- AEB1 [20]: 0.018
- AEB2 [20]: 0.0187
- Ave AEB [20]: 0.0184
- Signal to Background [20]: 5.62
Substance: NB500-240 (Novus) (antibody)

Source: US12467929
